Reference: patent publication US20260224670

T1: EB2 of mouse neurons and mouse brain, Q8R001
T1 chain: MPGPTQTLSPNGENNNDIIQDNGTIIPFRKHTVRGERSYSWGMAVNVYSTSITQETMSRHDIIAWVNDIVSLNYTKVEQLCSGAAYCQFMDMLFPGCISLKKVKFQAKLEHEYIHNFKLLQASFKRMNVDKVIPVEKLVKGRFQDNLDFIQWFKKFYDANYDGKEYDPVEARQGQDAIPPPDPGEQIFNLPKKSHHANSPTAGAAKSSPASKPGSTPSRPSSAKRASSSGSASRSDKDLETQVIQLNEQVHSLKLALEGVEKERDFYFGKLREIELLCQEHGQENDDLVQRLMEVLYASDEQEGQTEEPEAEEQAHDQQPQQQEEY

B1: hICK, 3xFLAG-TwinStrep tagged (protein)
chain: MNRYTTIRQLGDGTYGSVLLGRSIESGELIAIKKMKRKFYSWEECMNLREVKSLKKLNHANVVKLKEVIRENDHLYFIFEYMKENLYQLIKERNKLFPESAIRNIMYQILQGLAFIHKHGFFHRDLKPENLLCMGPELVKIADFGLAREIRSKPPYTDYVSTRWYRAPEVLLRSTNYSSPIDVWAVGCIMAEVYTLRPLFPGASEIDTIFKICQVLGTPKKTDWPEGYQLSSAMNFRWPQCVPNNLKTLIPNASSEAVQLLRDMLQWDPKKRPTASQALRYPYFQVGHPLGSTTQNLQDSEKPQKGILEKAGPPPYIKPVPPAQPPAKPHTRISSRQHQASQPPLHLTYPYKAEVSRTDHPSHLQEDKPSPLLFPSLHNKHPQSKITAGLEHKNGEIKPKSRRRWGLISRSTKDSDDWADLDDLDFSPSLSRIDLKNKKRQSDDTLCRFESVLDLKPSEPVGTGNSAPTQTSYQRRDTPTLRSAAKQHYLKHSRYLPGISIRNGILSNPGKEFIPPNPWSSSGLSGKSSGTMSVISKVNSVGSSSTSSSGLTGNYVPSFLKKEIGSAMQRVHLAPIPDPSPGYSSLKAMRPHPGRPFFHTQPRSTPGLIPRPPAAQPVHGRTDWASKYASRR
B2: mouse CDKL5 (endogenous) (protein)
chain: MKIPNIGNVMNKFEILGVVGEGAYGVVLKCRHKETHEIVAIKKFKDSEENEEVKETTLRELKMLRTLKQENIVELKEAFRRRGKLYLVFEYVEKNMLELLEEMPNGVPPEKVKSYIYQLIKAIHWCHKNDIVHRDIKPENLLISHNDVLKLCDFGFARNLSEGNNANYTEYVATRWYRSPELLLGAPYGKSVDMWSVGCILGELSDGQPLFPGESEIDQLFTIQKVLGPLPSEQMKLFYSNPRFHGLRFPAVNHPQSLERRYLGILNSVLLDLMKNLLKLDPADRYLTEQCLNHPTFQTQRLLDRSPSRSTKRKPYHVESSTLSNRNQSTKGAALQTHHRSNSKDIQNLSVGLPRAEEGLPANESFLNGNLAGATLSPMHTKTYQASTQPGSSSKDLTNNNIPHLLSPKEAKSKTEFDFNIDTKPSEGPGTKYLKSSTRSQQNRHSFMESSQSKAGTLQPSEKQSRHSYIDTIPQSSRSPSYRTKAKSHGALSDSKSVSNLSEARAQITETNTSRYFPSSCLDLNSPTSPTPTRHTDTRTLLSPSGRNNRNEGTLDSRRTTTRHSKTMEELKLPEHMDSSHSHSLSAPHESFSYGLGYTSPFSSQQRPHRHSMYVTRDKVRAKGLDGSLSIGQGMAARANSLQLLSPQPGEQLPPEMTVARPSVKESSREGASSFHTRQKSEGGVYHDPHSDDGTAPKENRHLYNDPVPRRVGSFYRVPSPRPDNSFHENNVSTRVSSLPSDSSSGTNHSKRQPGFDPWKSPENISHADQLKEKEKQGFFRSMKKKKKKTQTVPNTDGPDLLTLQKAIHSSSTASSRPKEWRPEKLSDLQTQSQPLKSLRKLLHLSSSTNHPASSDPRFQPLTAQQAKNSFSEIRIHPLSQATGGSSNIRQEPTPKGRPALQLPGSSLLRYNGWKHSRSRSSQPDEVIFLASHEKWKQ
B3: CDKL5 (recombinantly expressed) (protein)
chain: MKIPNIGNVMNKFEILGVVGEGAYGVVLKCRHKETHEIVAIKKFKDSEENEEVKETTLRELKMLRTLKQENIVELKEAFRRRGKLYLVFEYVEKNMLELLEEMPNGVPPEKVKSYIYQLIKAIHWCHKNDIVHRDIKPENLLISHNDVLKLCDFGFARNLSEGNNANYTEYVATRWYRSPELLLGAPYGKSVDMWSVGCILGELSDGQPLFPGESEIDQLFTIQKVLGPLPSEQMKLFYSNPRFHGLRFPAVNHPQSLERRYLGILNSVLLDLMKNLLKLDPADRYLTEQCLNHPTFQTQRLLDRSPSRSAKRKPYHVESSTLSNRNQAGKSTALQSHHRSNSKDIQNLSVGLPRADEGLPANESFLNGNLAGASLSPLHTKTYQASSQPGSTSKDLTNNNIPHLLSPKEAKSKTEFDFNIDPKPSEGPGTKYLKSNSRSQQNRHSFMESSQSKAGTLQPNEKQSRHSYIDTIPQSSRSPSYRTKAKSHGALSDSKSVSNLSEARAQIAEPSTSRYFPSSCLDLNSPTSPTPTRHSDTRTLLSPSGRNNRNEGTLDSRRTTTRHSKTMEELKLPEHMDSSHSHSLSAPHESFSYGLGYTSPFSSQQRPHRHSMYVTRDKVRAKGLDGSLSIGQGMAARANSLQLLSPQPGEQLPPEMTVARSSVKETSREGTSSFHTRQKSEGGVYHDPHSDDGTAPKENRHLYNDPVPRRVGSFYRVPSPRPDNSFHENNVSTRVSSLPSESSSGTNHSKRQPAFDPWKSPENISHSEQLKEKEKQGFFRSMKKKKKKSQTVPNSDSPDLLTLQKSIHSASTPSSRPKEWRPEKISDLQTQSQPLKSLRKLLHLSSASNHPASSDPRFQPLTAQQTKNSFSEIRIHPLSQASGGSSNIRQEPAPKGRPALQLPGQMDPGWHVSSVTRSATEGPSYSEQLGAKSGPNGHPYNRTNRSRMPNLNDLKETAL
B4: hCDKL2 (cyclin dependent kinase like 2), 3xFLAG-TwinStrep tagged (protein)
chain: MEKYENLGLVGEGSYGMVMKCRNKDTGRIVAIKKFLESDDDKMVKKIAMREIKLLKQLRHENLVNLLEVCKKKKRWYLVFEFVDHTILDDLELFPNGLDYQVVQKYLFQIINGIGFCHSHNIIHRDIKPENILVSQSGVVKLCDFGFARTLAAPGEVYTDYVATRWYRAPELLVGDVKYGKAVDVWAIGCLVTEMFMGEPLFPGDSDIDQLYHIMMCLGNLIPRHQELFNKNPVFAGVRLPEIKEREPLERRYPKLSEVVIDLAKKCLHIDPDKRPFCAELLHHDFFQMDGFAERFSQELQLKVQKDARNVSLSKKSQNRKKEKEKDDSLVEERKTLVVQDTNADPKIKDYKLFKIKGSKIDGEKAEKGNRASNASCLHDSRTSHNKIVPSTSLKDCSNVSVDHTRNPSVAIPPLTHNLSAVAPSINSGMGTETIPIQGYRVDEKTKKCSIPFVKPNRHSPSGIYNINVTTLVSGPPLSDDSGADLPQMEHQH
B5: mouse CDKL2 (endogenous) (protein)
chain: MEKYENLGLVGEGSYGMVMKCRNKDSGRIVAIKKFLESDDDKMVKKIAMREIKLLKQLRHENLVNLLEVCKKKKRWYLVFEFVDHTILDDLKLFPNGLDYQVVQKYLFQIINGIGFCHSHNIIHRDIKPENILVSQSGVVKLCDFGFARTLAAPGEVYTDYVATRWYRAPELLVGDVKYGKAVDIWAIGCLVIEMLMGQPLFPGESDIDQLHHIMTCLGNLIPRHQELFYKNPVFAGVRLPEVKDAEAEPLESRYPKLPEAVISLAKKCLHIDPDKRPFCADLLRHDFFQMDGFAERFSQELQLKIEKDARNNSLPKKSQNRKKEKDDALGEERKTLVVQDTNADPKIKDSKVFKVKGSKIDVEKMEKGSRASNANCLHDNGTNHKGLASTSLRDCSNVNIDHSRNPGTAIPPLTHNLSAVAPGINAGMGTIPGVQNYRVDEKTKKYCNPFVKPNQPPPAGIYNMNVSTSVSGEKYLLQANKKRKEYPKADVRLPELNYNHLPELRALEGIARNSRLIKKENKCLSESRIPSLAAIDLHVSSVASHQGAGSPLSDDSEADLPRMEHQH

Molecular target: T1, EB2 of mouse neurons and mouse brain, …

Protein | phospho-Ser222 EB2 in transfected CDKL5 KO primary cortical neurons | further results
B1 | pS222 EB2 is specifically increased in the neurons that express these kinases | 
B2 |  | pS222 EB2 in primary cortical cultures of CDKL5 KO against wild type littermates: pS222 EB2 is much lower in CDKL5 KOs
B3 | pS222 EB2 is specifically increased in the neurons that express these kinases | 
B4 | pS222 EB2 is specifically increased in the neurons that express these kinases | 
B5 |  | okadaic acid dependent increase of pEB2/EB2 in CDKL5 KO primary neurons after CDKL2 shRNA knockdown: Both shRNAs caused a reduction of the OA dependent increase of pEB2/EB2
